Measurements taken from patent US20240309073A1 (SERUM INSTITUTE OF INDIA PRIVATE, published 2024).

Legend:
Assay in all cases: cell-based or functional assay
[1] = target: T1, Dengue virus serotype DV4 (Dengue virus serotype 4 (DV4), UniProt P09866 280-774)
[2] = target: T2, Dengue virus serotype DV2 (Dengue virus serotype 2 (DV2), UniProt P29990 281-775)
[3] = target: T3, Dengue virus serotype DV3 (Dengue virus serotype 3 (DV3), UniProt Q6YMS4 281-773)
[4] = target: T1, Dengue virus serotype DV4; remark: listed apart in the source
[5] = target: T2, Dengue virus serotype DV2; remark: listed apart in the source
[6] = target: T3, Dengue virus serotype DV3; remark: listed apart in the source
[7] = target: T2, Dengue virus serotype DV2; remark: listed apart in the source

T1 sequence (P09866 280-774 limits assumed): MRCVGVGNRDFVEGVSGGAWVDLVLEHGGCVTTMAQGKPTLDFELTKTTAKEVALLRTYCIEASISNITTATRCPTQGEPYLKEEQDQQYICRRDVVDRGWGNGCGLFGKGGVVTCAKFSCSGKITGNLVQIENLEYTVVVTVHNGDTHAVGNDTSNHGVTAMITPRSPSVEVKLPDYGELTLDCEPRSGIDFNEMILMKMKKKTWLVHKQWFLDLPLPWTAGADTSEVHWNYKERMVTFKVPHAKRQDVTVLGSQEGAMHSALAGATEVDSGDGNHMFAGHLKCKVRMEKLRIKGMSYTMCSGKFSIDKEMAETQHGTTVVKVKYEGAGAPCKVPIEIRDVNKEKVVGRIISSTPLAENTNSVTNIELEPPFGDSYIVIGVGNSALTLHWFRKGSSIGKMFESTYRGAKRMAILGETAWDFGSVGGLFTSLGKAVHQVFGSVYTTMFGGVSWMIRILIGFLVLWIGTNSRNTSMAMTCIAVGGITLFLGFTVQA

B1: Dengue (VIS513) Monoclonal antibody (antibody, human IgG1, kappa, V domains shown)
VH: QVQLVQSGAEVKKPGASVKVSCKAGFNIKDVYMSWVRQAPEQGLEWMGRIDPENGDTKYDPKLQGRVTMTADTSTNTAYMELRSLRSDDTAVYYCARGWEGFAYWGQGTLVTVSS
VL: DIVMTQSPASLAVSLGERATISCRASENVDKYGNSFMHWYQQKPGQPPKLLIYRASELQWGVPDRFSGSGSGTDFTLTISSLQAEDVAVYYCQRSNEVPWTFGQGTKLEIKR
EC50 (ng/ml) by PRNT assay; Batch 1, stored at 2-8° C., 0 day [1]: 30.3 ng/mL
EC50 (ng/ml) by PRNT assay; Batch 1, stored at 2-8° C., 3 months [1]: 50.8 ng/mL
EC50 (ng/ml) by PRNT assay; Batch 1, stored at 2-8° C., 6 months [1]: 24 ng/mL
EC50 (ng/ml) by PRNT assay; Batch 1, stored at 2-8° C., 9 months [1]: 23.4 ng/mL
EC50 (ng/ml) by PRNT assay; Batch 2, stored at 2-8° C., 0 day [1]: 22.5 ng/mL
EC50 (ng/ml) by PRNT assay; Batch 2, stored at 2-8° C., 3 months [1]: 22.4 ng/mL
EC50 (ng/ml) by PRNT assay; Batch 2, stored at 2-8° C., 6 months [1]: 16.6 ng/mL
EC50 (ng/ml) by PRNT assay; Batch 2, stored at 2-8° C., 9 months [1]: 19.6 ng/mL
EC50 (ng/ml) by PRNT assay; Batch 1, stored at 2-8° C., 0 day [2]: 5.9 ng/mL
EC50 (ng/ml) by PRNT assay; Batch 1, stored at 2-8° C., 3 months [2]: 8.03 ng/mL
EC50 (ng/ml) by PRNT assay; Batch 1, stored at 2-8° C., 6 months [2]: 3.58 ng/mL
EC50 (ng/ml) by PRNT assay; Batch 1, stored at 2-8° C., 9 months [2]: 3.31 ng/mL
EC50 (ng/ml) by PRNT assay; Batch 2, stored at 2-8° C., 0 day [2]: 3.26 ng/mL
EC50 (ng/ml) by PRNT assay; Batch 2, stored at 2-8° C., 3 months [2]: 5.69 ng/mL
EC50 (ng/ml) by PRNT assay; Batch 2, stored at 2-8° C., 6 months [2]: 4.15 ng/mL
EC50 (ng/ml) by PRNT assay; Batch 2, stored at 2-8° C., 9 months [2]: 2.87 ng/mL
EC50 (ng/ml) by PRNT assay; Batch 1, stored at 2-8° C., 0 day [3]: 14.4 ng/mL
EC50 (ng/ml) by PRNT assay; Batch 1, stored at 2-8° C., 3 months [3]: 14.7 ng/mL
EC50 (ng/ml) by PRNT assay; Batch 1, stored at 2-8° C., 6 months [3]: 5.58 ng/mL
EC50 (ng/ml) by PRNT assay; Batch 1, stored at 2-8° C., 9 months [3]: 4.57 ng/mL
EC50 (ng/ml) by PRNT assay; Batch 2, stored at 2-8° C., 0 day [3]: 13.2 ng/mL
EC50 (ng/ml) by PRNT assay; Batch 2, stored at 2-8° C., 6 months [3]: 6.53 ng/mL
EC50 (ng/ml) by PRNT assay; Batch 2, stored at 2-8° C., 9 months [3]: 7.05 ng/mL
EC50 (ng/ml) by PRNT assay; Batch 1, stored at 25° C., 0 day [4]: 30.3 ng/mL
EC50 (ng/ml) by PRNT assay; Batch 1, stored at 25° C., 30 days [4]: 35.3 ng/mL
EC50 (ng/ml) by PRNT assay; Batch 2, stored at 25° C., 0 day [4]: 22.5 ng/mL
EC50 (ng/ml) by PRNT assay; Batch 2, stored at 25° C., 30 days [4]: 30.7 ng/mL
EC50 (ng/ml) by PRNT assay; Batch 1, stored at 25° C., 0 day [5]: 5.9 ng/mL
EC50 (ng/ml) by PRNT assay; Batch 1, stored at 25° C., 30 days [5]: 5.6 ng/mL
EC50 (ng/ml) by PRNT assay; Batch 2, stored at 25° C., 0 day [5]: 3.26 ng/mL
EC50 (ng/ml) by PRNT assay; Batch 2, stored at 25° C., 30 days [5]: 5.51 ng/mL
EC50 (ng/ml) by PRNT assay; Batch 1, stored at 25° C., 0 day [6]: 14.4 ng/mL
EC50 (ng/ml) by PRNT assay; Batch 1, stored at 25° C., 30 days [6]: 9.63 ng/mL
EC50 (ng/ml) by PRNT assay; Batch 2, stored at 25° C., 0 day [6]: 13.2 ng/mL
EC50 (ng/ml) by PRNT assay; Batch 2, stored at 25° C., 30 days [6]: 9.25 ng/mL
EC50 (ng/ml) by PRNT assay; Batch 1, 40° C. study, Control, 0 day [7]: 6.66 ng/mL
EC50 (ng/ml) by PRNT assay; Batch 1, 40° C. study, Control, 7 days [7]: 6.37 ng/mL
EC50 (ng/ml) by PRNT assay; Batch 1, 40° C. study, Control, 14 days [7]: 6.18 ng/mL
EC50 (ng/ml) by PRNT assay; Batch 1, stored at 40° C., Test, 7 days [7]: 26.9 ng/mL
EC50 (ng/ml) by PRNT assay; Batch 1, stored at 40° C., Test, 14 days [7]: 36.1 ng/mL
